The experiment deals with mucin from porcine stomach type II (porcine). Briefly: ELISA; as a2, but mucin type II was first treated with supernatant of the sulfatase-deficient B. thetaiotaomicron anSME mutant for 24 h or 72 h. A general note: ELISA stands for enzyme-linked immunosorbent assay.

The results in this text go back to paper PMC5712619, “3-Sulfogalactosyl-dependent adhesion of Escherichia coli HS multivalent adhesion molecule is attenuated by sulfatase activity” (The Journal of Biological Chemistry, 2017).

mucin from porcine stomach type II (porcine), sequence (main, as listed by the source): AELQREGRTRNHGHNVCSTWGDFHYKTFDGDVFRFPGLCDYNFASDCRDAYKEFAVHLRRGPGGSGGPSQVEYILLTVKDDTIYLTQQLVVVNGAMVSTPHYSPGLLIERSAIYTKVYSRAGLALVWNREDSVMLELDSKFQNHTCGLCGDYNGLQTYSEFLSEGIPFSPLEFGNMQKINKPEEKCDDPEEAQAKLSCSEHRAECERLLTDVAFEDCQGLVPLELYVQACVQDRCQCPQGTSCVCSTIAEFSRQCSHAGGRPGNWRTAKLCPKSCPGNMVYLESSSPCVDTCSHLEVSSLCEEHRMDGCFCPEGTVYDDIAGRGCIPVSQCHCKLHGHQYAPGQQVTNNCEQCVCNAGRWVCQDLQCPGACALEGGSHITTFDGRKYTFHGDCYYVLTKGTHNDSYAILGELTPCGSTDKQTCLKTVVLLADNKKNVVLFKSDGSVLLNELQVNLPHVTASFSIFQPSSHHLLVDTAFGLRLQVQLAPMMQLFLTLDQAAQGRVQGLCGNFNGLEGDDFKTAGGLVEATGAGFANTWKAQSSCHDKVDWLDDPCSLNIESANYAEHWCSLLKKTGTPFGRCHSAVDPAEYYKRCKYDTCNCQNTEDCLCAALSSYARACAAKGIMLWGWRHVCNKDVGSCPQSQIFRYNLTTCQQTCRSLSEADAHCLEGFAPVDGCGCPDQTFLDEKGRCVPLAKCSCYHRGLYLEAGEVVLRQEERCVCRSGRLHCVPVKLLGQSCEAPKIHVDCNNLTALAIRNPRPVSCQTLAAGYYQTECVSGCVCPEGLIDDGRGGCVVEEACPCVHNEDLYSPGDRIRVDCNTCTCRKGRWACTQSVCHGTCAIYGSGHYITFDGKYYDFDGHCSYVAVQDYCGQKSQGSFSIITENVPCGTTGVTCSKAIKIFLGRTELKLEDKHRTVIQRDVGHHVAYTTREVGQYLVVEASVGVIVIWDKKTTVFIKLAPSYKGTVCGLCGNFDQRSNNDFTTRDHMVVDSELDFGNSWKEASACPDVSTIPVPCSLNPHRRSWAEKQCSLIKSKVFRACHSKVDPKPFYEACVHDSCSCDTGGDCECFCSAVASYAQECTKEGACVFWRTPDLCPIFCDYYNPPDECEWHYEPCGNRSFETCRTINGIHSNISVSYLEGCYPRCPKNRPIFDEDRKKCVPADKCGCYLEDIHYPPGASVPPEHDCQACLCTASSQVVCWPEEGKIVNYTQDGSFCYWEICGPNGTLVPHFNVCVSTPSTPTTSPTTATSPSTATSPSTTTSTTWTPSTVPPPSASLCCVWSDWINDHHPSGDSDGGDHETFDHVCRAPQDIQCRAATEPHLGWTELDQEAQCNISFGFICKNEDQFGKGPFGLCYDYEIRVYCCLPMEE

“GST-MAM^HS (multivalent adhesion molecule from the gut commensal Escherichia coli HS, ΔTM construct) (domain or fragment)” returned a loss of binding as percent of the loss seen with wild-type supernatant (24 h treatment of mucin with anSME mutant supernatant) of 25% and a loss of binding as percent of the loss seen with wild-type supernatant (72 h treatment of mucin with anSME mutant supernatant) of 50%.
